Biological target: PKA catalytic subunit (PKAc), recombinant (UniProt P05132)
Assay: fluorescence polarisation; LiReC competition assay, R-subunit inhibition response without cAMP: 10.0 nM PKAc, 1 nM-1 μM bRIα (monomer), 1.67 nM [5/6-FAM]-IP20; 50 mM MOPS pH 7.0, 35 mM NaCl, 10 mM MgCl2, 1 mM ATP, 2 mM DTT, 0.005% Triton X-100

Row | IC50 [nM] | Kd [nM] | Substance
1 | 5.05 | < 10 | recombinant bovine PKA regulatory subunit RIα (bRIα), S101A mutant (from UniProt P00514 1-380) (natural protein)
2 | 212 |  | recombinant bovine PKA regulatory subunit RIα (bRIα), S101E phosphomimetic mutant (from UniProt P00514 1-380) (natural protein)
3 | 4.5 | < 10 | recombinant bovine PKA regulatory subunit RIα (bRIα), wildtype (from UniProt P00514 1-380) (natural protein)
